Assays:
5HT3a = target: T1, 5HT3a (Homo sapiens, UniProt P46098); assay: Ion channel panel (IonWorks Barracuda): 5HT3a; format: cell-based
T1 construct: host or cells: HEK293 or CHO
T1 sequence (P46098 whole entry, looked up): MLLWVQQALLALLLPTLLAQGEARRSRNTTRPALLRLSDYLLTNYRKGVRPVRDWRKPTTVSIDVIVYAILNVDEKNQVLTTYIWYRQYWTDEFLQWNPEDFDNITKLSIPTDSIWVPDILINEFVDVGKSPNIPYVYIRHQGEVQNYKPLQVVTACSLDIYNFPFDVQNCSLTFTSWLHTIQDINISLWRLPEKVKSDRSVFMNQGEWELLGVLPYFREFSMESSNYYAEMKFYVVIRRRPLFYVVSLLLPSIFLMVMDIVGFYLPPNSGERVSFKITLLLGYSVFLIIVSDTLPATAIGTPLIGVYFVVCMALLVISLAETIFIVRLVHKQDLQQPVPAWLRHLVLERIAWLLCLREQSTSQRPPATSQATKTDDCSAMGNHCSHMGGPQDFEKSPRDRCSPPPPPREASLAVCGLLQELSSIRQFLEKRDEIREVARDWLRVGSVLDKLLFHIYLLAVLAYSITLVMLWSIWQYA
Method in brief: (§1)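 Transfected HEK293 or CHO cells were exposed for at least 5 min to peptides at 200 nM and 20 μM final, tested in duplicate, in HEPES-buffered physiological saline. Activation was taken as peptide-plus-agonist current over control current ×100, and inhibition as 1 minus that ratio ×100. Each channel's control was its own reference compound.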

α4β2 = target: T2, α4β2 (Homo sapiens, UniProt P17787+P43681); assay: Ion channel panel (IonWorks Barracuda): α4β2; format: cell-based; conditions: 100% = no change, <100% = inhibition
T2 construct: host or cells: HEK293 or CHO
Method in brief: as §1

GABA = assay: Ion channel panel (IonWorks Barracuda): GABA; format: cell-based; conditions: 100% = no change, <100% = inhibition
Method in brief: as §1

Nav1.7 = target: T3, Nav1.7 (Homo sapiens, UniProt Q15858); assay: cell-based; format: cell-based; conditions: 100% = no change; for Activity of Nav1.7 with peptide, expressed as a percentage of the reference compound: peptide at 0.2 μM; for Activity of Nav1.7 with peptide (percentage of the reference compound): peptide at 20 μM
T3 construct: host or cells: HEK293 or CHO
T3 sequence (Q15858 whole entry): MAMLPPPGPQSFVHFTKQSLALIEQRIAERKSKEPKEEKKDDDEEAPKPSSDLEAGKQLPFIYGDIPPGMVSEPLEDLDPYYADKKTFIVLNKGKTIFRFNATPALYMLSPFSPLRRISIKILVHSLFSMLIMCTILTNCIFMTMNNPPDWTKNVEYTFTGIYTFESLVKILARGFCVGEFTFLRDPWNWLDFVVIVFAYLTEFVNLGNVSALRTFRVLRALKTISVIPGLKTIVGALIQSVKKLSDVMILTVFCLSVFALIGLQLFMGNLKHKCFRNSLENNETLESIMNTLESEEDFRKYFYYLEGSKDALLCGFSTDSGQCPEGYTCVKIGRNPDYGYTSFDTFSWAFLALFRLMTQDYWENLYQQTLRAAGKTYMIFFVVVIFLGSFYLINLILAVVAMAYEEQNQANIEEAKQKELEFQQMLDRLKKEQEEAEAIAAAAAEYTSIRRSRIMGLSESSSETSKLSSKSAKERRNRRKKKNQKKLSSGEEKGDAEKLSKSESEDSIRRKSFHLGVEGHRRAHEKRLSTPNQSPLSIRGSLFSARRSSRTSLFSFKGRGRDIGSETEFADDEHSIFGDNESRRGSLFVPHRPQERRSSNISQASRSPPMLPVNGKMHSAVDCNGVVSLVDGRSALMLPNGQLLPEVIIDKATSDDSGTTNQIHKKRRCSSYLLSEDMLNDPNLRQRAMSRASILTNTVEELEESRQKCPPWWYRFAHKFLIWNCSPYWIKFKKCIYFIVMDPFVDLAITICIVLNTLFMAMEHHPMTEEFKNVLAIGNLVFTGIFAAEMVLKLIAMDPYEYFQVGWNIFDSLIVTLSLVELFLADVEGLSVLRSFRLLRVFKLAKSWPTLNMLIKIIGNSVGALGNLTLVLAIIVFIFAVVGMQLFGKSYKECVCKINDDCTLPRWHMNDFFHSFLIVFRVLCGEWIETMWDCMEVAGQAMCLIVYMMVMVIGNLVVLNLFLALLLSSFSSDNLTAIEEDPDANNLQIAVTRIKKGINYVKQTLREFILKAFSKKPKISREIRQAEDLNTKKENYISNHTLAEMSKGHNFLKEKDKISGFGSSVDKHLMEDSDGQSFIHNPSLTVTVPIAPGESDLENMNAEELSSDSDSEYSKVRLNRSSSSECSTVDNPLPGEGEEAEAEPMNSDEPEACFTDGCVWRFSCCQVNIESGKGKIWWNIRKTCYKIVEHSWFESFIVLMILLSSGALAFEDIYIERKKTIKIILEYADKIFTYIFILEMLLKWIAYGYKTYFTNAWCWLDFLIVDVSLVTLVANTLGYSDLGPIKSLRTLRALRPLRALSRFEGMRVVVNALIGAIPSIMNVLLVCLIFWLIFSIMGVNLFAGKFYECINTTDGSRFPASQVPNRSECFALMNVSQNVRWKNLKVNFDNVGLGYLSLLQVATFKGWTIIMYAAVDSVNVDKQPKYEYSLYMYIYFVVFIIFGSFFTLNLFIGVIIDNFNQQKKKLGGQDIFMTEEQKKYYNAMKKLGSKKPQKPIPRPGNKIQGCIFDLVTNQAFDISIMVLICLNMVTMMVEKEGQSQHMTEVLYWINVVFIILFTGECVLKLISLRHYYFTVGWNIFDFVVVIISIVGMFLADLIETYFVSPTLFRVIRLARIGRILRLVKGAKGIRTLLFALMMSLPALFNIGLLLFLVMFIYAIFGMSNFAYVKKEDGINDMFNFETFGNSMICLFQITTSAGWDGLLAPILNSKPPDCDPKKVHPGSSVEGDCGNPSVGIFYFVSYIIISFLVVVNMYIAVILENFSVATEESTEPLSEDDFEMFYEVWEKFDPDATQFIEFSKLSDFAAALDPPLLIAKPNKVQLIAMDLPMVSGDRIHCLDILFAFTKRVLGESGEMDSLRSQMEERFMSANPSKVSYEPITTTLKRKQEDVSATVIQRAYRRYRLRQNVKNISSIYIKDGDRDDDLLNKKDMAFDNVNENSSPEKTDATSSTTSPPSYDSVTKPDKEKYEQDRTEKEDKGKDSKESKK

Kv1.1 = target: T4, Kv1.1 (Homo sapiens, UniProt Q09470); assay: cell-based; format: cell-based; conditions: 100% = no change, <100% = inhibition
T4 construct: host or cells: HEK293 or CHO
Method in brief: as §1

Kv1.3 = target: T5, Kv1.3 (Homo sapiens, UniProt P22001); assay: cell-based; format: cell-based; conditions: 100% = no change, <100% = inhibition
T5 construct: host or cells: HEK293 or CHO
T5 sequence (P22001 whole entry): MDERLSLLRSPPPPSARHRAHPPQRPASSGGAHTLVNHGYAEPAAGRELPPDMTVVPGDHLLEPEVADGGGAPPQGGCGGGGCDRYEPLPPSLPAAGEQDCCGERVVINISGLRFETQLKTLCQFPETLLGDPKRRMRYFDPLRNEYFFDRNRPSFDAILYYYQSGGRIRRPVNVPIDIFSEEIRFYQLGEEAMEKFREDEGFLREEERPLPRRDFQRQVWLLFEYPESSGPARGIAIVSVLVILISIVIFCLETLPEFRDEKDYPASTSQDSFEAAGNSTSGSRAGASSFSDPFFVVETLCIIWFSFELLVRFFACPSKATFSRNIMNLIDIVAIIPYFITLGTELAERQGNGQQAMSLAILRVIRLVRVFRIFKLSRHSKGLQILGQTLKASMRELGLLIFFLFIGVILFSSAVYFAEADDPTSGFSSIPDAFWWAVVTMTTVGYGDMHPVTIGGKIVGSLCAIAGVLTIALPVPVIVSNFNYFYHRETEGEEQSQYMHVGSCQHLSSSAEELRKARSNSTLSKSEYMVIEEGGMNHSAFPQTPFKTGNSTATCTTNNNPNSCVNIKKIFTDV
Method in brief: as §1

Kv1.2 = target: T6, Kv1.2 (Homo sapiens, UniProt P16389); assay: cell-based; format: cell-based; conditions: 100% = no change, <100% = inhibition
T6 construct: host or cells: HEK293 or CHO
T6 sequence (P16389 whole entry): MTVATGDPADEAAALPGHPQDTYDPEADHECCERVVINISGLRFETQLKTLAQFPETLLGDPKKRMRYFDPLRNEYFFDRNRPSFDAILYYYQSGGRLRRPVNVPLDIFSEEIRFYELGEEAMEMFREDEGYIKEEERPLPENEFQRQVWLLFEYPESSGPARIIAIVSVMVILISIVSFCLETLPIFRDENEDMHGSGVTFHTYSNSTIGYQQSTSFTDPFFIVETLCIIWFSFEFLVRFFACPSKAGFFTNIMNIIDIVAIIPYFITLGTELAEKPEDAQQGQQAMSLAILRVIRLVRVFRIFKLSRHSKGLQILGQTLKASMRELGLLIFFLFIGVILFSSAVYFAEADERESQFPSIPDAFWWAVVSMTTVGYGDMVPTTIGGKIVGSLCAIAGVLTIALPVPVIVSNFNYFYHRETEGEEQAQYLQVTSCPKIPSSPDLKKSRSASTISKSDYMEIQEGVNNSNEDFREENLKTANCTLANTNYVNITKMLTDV
Method in brief: as §1

TRPA1 = target: T7, TRPA1 (Homo sapiens, UniProt O75762); assay: Ion channel panel (IonWorks Barracuda): TRPA1; format: cell-based; conditions: 100% = no change, <100% = inhibition
T7 construct: host or cells: HEK293 or CHO
Method in brief: as §1

Kir2.1 = target: T8, Kir2.1 (Homo sapiens, UniProt P63252); assay: Ion channel panel (IonWorks Barracuda): Kir2.1; format: cell-based; conditions: 100% = no change, <100% = inhibition
T8 construct: host or cells: HEK293 or CHO
Method in brief: as §1

NR2B = target: T9, NR2B (Homo sapiens, UniProt Q13224); assay: Ion channel panel (IonWorks Barracuda): NR2B; format: cell-based; conditions: 100% = no change, <100% = inhibition
T9 construct: host or cells: HEK293 or CHO
Method in brief: as §1

Kv2.1 = target: T10, Kv2.1 (Homo sapiens, UniProt Q14721); assay: cell-based; conditions: 100% = no change, <100% = inhibition
T10 construct: host or cells: HEK293 or CHO
Method in brief: as §1

Cav2.2 = target: T11, Cav2.2 (Homo sapiens, UniProt Q00975); assay: cell-based; conditions: 100% = no change, <100% = inhibition
T11 construct: host or cells: HEK293 or CHO
Method in brief: as §1

Cav2.1 = target: T12, Cav2.1 (Homo sapiens, UniProt O00555); assay: cell-based; conditions: 100% = no change, <100% = inhibition
T12 construct: host or cells: HEK293 or CHO
Method in brief: as §1

hERG = hERG (Homo sapiens, UniProt Q12809); assay: in vitro; conditions: 100% = no change, <100% = inhibition
Method in brief: as §1

Nav1.5 = Nav1.5 (Homo sapiens, UniProt Q14524); assay: in vitro; conditions: 100% = no change; for Activity of Nav1.5 with peptide, expressed as a percentage of the reference compound: peptide at 0.2 μM; for Activity of Nav1.5 with peptide (percentage of the reference compound): peptide at 20 μM
Chain of Nav1.5 (Q14524 whole entry): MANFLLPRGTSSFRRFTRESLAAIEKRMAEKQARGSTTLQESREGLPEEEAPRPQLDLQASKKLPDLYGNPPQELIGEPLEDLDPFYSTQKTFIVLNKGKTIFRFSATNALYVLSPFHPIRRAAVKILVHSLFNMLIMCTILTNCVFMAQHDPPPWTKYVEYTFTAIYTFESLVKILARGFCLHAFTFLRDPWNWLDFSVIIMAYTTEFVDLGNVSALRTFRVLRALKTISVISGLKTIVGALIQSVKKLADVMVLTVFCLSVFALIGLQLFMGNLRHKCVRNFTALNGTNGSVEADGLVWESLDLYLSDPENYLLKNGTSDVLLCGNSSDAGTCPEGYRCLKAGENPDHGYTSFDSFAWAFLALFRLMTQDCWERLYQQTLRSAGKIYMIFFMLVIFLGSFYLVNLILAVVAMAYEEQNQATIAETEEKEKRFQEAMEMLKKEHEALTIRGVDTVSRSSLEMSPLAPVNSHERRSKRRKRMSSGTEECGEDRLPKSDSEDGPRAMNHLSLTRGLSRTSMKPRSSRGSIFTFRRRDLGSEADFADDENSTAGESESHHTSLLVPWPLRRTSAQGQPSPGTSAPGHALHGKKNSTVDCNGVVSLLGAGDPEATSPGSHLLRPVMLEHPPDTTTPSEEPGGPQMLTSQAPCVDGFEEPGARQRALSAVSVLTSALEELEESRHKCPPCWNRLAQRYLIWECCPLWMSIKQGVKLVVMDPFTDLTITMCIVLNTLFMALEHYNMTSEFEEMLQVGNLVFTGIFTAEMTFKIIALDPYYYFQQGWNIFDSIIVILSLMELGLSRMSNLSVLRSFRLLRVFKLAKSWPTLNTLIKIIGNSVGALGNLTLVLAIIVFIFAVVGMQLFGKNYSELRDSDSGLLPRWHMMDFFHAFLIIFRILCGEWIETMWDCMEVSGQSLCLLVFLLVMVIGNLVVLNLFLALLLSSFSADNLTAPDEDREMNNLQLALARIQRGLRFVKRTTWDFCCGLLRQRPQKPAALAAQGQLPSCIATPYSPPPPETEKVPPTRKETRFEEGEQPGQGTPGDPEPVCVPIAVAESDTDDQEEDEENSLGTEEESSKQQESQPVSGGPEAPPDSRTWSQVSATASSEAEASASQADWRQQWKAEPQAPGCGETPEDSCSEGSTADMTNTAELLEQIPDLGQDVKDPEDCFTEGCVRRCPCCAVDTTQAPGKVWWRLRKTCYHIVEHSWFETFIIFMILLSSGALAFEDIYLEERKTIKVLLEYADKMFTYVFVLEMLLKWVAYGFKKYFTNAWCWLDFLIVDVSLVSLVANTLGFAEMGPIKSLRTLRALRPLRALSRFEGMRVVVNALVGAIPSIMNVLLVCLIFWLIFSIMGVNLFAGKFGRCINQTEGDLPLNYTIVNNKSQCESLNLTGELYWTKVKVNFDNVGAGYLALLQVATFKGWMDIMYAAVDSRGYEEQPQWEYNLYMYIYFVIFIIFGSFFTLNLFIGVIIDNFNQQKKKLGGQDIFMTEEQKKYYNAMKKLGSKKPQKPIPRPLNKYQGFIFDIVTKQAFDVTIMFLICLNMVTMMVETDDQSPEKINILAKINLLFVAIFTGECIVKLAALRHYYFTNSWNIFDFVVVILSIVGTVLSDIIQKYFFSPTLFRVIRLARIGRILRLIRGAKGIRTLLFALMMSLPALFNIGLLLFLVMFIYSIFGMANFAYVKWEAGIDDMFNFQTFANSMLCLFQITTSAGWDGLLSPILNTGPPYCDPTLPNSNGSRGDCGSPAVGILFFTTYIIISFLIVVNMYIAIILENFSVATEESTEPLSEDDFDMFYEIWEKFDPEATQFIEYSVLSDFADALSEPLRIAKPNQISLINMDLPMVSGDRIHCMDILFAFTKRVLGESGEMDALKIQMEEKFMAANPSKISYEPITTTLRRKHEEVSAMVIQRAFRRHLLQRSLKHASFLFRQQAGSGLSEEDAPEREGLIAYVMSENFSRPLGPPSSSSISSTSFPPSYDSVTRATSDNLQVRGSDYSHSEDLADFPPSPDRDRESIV
Method in brief: as §1

α3β4 = target: T13, α3β4 (Homo sapiens, UniProt P30926+P32297); assay: Ion channel panel (IonWorks Barracuda): α3β4; format: cell-based; conditions: 100% = no change, <100% = inhibition
T13 construct: host or cells: HEK293 or CHO
Method in brief: as §1

NR2A = target: T14, NR2A (Homo sapiens, UniProt Q12879); assay: Ion channel panel (IonWorks Barracuda): NR2A; format: cell-based; conditions: 100% = no change, <100% = inhibition
T14 construct: host or cells: HEK293 or CHO
Method in brief: as §1

TRPV1 = target: T15, TRPV1 (Homo sapiens, UniProt Q8NER1); assay: Ion channel panel (IonWorks Barracuda): TRPV1; format: cell-based; conditions: 100% = no change, <100% = inhibition
T15 construct: host or cells: HEK293 or CHO
Method in brief: as §1

[1] = first of two Nav1.7 columns (probably TP1)
[2] = second of two Nav1.7 columns (probably TP2)
[3] = first of two Nav1.5 columns (probably TP1)
[4] = second of two Nav1.5 columns (probably TP2)

Substance: 13 (GSQKILSNRCNNSSECIPHCIRIFGTRAAKCINRKCYCYP) [compound 13]
- Activity of 5HT3a with peptide (percentage of the reference compound) (5HT3a): 84%
- Activity of 5HT3a with peptide, expressed as a percentage of the reference compound (5HT3a): 96%
- Activity of a4b2 with peptide, expressed as a percentage of the reference compound (α4β2; peptide at 0.2 μM): 97%
- Activity of a4b2 with peptide (percentage of the reference compound) (α4β2; peptide at 20 μM): 80%
- Activity of GABA with peptide, expressed as a percentage of the reference compound (GABA; peptide at 0.2 μM): 107%
- Activity of GABA with peptide (percentage of the reference compound) (GABA; peptide at 20 μM): 93%
- Activity of Nav1.7 with peptide, expressed as a percentage of the reference compound (Nav1.7; [1]): 61%
- Activity of Nav1.7 with peptide, expressed as a percentage of the reference compound (Nav1.7; [2]): 66%
- Activity of Nav1.7 with peptide (percentage of the reference compound) (Nav1.7; [1]): 71%
- Activity of Nav1.7 with peptide (percentage of the reference compound) (Nav1.7; [2]): 62%
- Activity of Kv1.1 with peptide, expressed as a percentage of the reference compound (Kv1.1; peptide at 0.2 μM): 107%
- Activity of Kv1.1 with peptide (percentage of the reference compound) (Kv1.1; peptide at 20 μM): 79%
- Activity of Kv1.3 with peptide, expressed as a percentage of the reference compound (Kv1.3; peptide at 0.2 μM): 68%
- Activity of Kv1.3 with peptide (percentage of the reference compound) (Kv1.3; peptide at 20 μM): 64%
- Activity of Kv1.2 with peptide, expressed as a percentage of the reference compound (Kv1.2; peptide at 0.2 μM): 88%
- Activity of Kv1.2 with peptide (percentage of the reference compound) (Kv1.2; peptide at 20 μM): 40%
- Activity of TRPA1 with peptide, expressed as a percentage of the reference compound (TRPA1; peptide at 0.2 μM): 129%
- Activity of TRPA1 with peptide (percentage of the reference compound) (TRPA1; peptide at 20 μM): 113%
- Activity of Kir2.1 with peptide, expressed as a percentage of the reference compound (Kir2.1; peptide at 0.2 μM): 97%
- Activity of Kir2.1 with peptide (percentage of the reference compound) (Kir2.1; peptide at 20 μM): 98%
- Activity of NR2B with peptide, expressed as a percentage of the reference compound (NR2B; peptide at 0.2 μM): 122%
- Activity of NR2B with peptide (percentage of the reference compound) (NR2B; peptide at 20 μM): 117%
- Activity of Kv2.1 with peptide, expressed as a percentage of the reference compound (Kv2.1; peptide at 0.2 μM): 104%
- Activity of Kv2.1 with peptide (percentage of the reference compound) (Kv2.1; peptide at 20 μM): 116%
- Activity of Cav2.2 with peptide, expressed as a percentage of the reference compound (Cav2.2; peptide at 0.2 μM): 121%
- Activity of Cav2.2 with peptide (percentage of the reference compound) (Cav2.2; peptide at 20 μM): 100%
- Activity of Cav2.1 with peptide, expressed as a percentage of the reference compound (Cav2.1; peptide at 0.2 μM): 109%
- Activity of Cav2.1 with peptide (percentage of the reference compound) (Cav2.1; peptide at 20 μM): 100%
- Activity of hERG with peptide, expressed as a percentage of the reference compound (hERG; peptide at 0.2 μM): 89%
- Activity of hERG with peptide (percentage of the reference compound) (hERG; peptide at 20 μM): 67%
- Activity of Nav1.5 with peptide, expressed as a percentage of the reference compound (Nav1.5; [3]): 98%
- Activity of Nav1.5 with peptide, expressed as a percentage of the reference compound (Nav1.5; [4]): 95%
- Activity of Nav1.5 with peptide (percentage of the reference compound) (Nav1.5; [3]): 97%
- Activity of Nav1.5 with peptide (percentage of the reference compound) (Nav1.5; [4]): 101%
- Activity of a3b4 with peptide, expressed as a percentage of the reference compound (α3β4; peptide at 0.2 μM): 103%
- Activity of a3b4 with peptide (percentage of the reference compound) (α3β4; peptide at 20 μM): 83%
- Activity of NR2A with peptide, expressed as a percentage of the reference compound (NR2A; peptide at 0.2 μM): 94%
- Activity of NR2A with peptide (percentage of the reference compound) (NR2A; peptide at 20 μM): 108%
- Activity of TRPV1 with peptide, expressed as a percentage of the reference compound (TRPV1; peptide at 0.2 μM): 97%
- Activity of TRPV1 with peptide (percentage of the reference compound) (TRPV1; peptide at 20 μM): 88%
